Patent US5648214, “High-affinity oligonucleotide ligands to the tachykinin substance P” (University Research Corporation)

T1: Substance P (SP) (UniProt P20366)
T1 sequence: RPKPQQFFGLM

T2: Substance P (SP) (UniProt P20366)
T2 chain: RPKPQQFFGLM

B1: ligand B32 (ssRNA)
RNA: GGGAGCUCAGAAUAAACGCUCAAAAAGGCACUGACCACCCUCAGGAAGAAUAACCGCGGUCACCCGCAUCCGAGUCUAUCAAUUUCGACAUGAGGCCCGGAUCCGGC

Experiments:
Substance P (SP) [1] = target: T1, Substance P (SP); details: equilibrium dialysis rough estimate at 20 uM RNA, fraction bound 0.017
Substance P (SP) [2] = target: T2, Substance P (SP); experiment: high affinity class 3 ligand; single-point equilibrium dialysis, Kd value only in figure; details: protein: synthetic; tags: synthetic peptide, C-terminal amide; Sigma; 3H-SP from NEN
Procedure: Equilibrium dialysis experiments were performed with a Spectra/Por® (Spectrum; Houston, Tex.) equilibrium dialyzer, Spectra/Por® (Spectrum; Houston, Tex.) microcell dialysis chambers (200-µl chamber volumes), and 12000–14000 MWCO dialysis membranes (Spectrum; Houston, Tex.). These membranes allow passage of SP but not 107-nt RNAs. Sample volumes were 200 µl on each side of the membrane (i.e., 200 µl per chamber). All experiments were at room temperature in 1× SP binding buffer. RNAs (unlabeled) were denatured prior to re-equilibration in binding buffer as described above for Experiment B. For binding curves (FIG. 4), RNA concentrations between 50 nM and 20 µM were utilized. Single point K_d estimates for individual Experiment B ligands were performed with 200 nM or 1 µM RNA. […] Equilibrium dialysis initiated with ^3H-SP on one side of the membrane and in the absence of RNA was performed to determine the length of time required to attain equilibrium (~2.5 hours for Spectra/Por®-2 membranes); dialysis times for binding measurements were at least one hour longer than this determined time. Following equilibration, samples were withdrawn from the dialysis chambers, added to scintillation fluid, and counted.

Molecule	Kd (Substance P (SP) [1]) [µM]	binding result (Substance P (SP) [2])
GGGAGCUCAGAAUAAACGCUCAANNNNNNNNNNNNNNNNNNNNNNNNNNNNNNNNNNNNNNNNNNNNNNNNNNNNNNNNNNNNUUCGACAUGAGGCCCGGAUCCGGC [unselected 60N RNA pool]	1200	–
B1	–	binds
